In patent US20120282269A1 (Boehringer Ingelheim, published 2012):
Values joined by “and” are separate entries in the source; they are usually repeats but may differ in a detail not shown here. Identical values can stand only once.

T1: recombinant human IL-23 (human, UniProt P29460 23-328)
T1 sequence 1: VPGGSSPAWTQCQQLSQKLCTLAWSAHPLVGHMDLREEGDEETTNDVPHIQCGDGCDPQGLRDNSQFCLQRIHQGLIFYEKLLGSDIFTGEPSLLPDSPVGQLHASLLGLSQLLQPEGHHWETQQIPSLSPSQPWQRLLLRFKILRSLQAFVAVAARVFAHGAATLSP
T1 sequence 2: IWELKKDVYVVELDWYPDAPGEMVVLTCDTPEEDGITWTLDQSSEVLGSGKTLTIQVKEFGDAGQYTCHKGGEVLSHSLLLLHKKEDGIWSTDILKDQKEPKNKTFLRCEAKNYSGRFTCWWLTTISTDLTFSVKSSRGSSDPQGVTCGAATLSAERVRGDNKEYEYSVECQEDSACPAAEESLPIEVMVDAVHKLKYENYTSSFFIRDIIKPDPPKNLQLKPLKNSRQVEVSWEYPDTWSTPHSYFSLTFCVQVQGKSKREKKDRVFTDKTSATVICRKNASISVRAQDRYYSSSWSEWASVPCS

T2: natural human IL-23 from activated THP-1 cells (human, UniProt P29460 23-328)
T2 sequence 1: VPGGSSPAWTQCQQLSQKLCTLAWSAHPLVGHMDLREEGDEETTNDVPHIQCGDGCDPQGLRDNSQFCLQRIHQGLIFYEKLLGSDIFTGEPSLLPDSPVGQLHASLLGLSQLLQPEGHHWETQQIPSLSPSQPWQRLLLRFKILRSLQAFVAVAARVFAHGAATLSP
T2 sequence 2: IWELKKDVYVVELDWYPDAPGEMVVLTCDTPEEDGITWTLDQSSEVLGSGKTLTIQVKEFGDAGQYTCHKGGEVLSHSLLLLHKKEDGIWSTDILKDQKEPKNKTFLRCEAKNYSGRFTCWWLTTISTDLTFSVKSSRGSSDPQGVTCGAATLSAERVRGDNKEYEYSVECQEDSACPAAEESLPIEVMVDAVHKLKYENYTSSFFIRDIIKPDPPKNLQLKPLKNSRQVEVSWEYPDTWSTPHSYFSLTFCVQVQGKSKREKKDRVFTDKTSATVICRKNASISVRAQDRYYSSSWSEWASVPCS


Tests used:
[1] = biological target: T1, recombinant human IL-23; test: cell-based or functional assay
[2] = biological target: T2, natural human IL-23 from activated …; test: cell-based or functional assay

Binder	IC50, inhibition of IL-17 production from IL-23 stimulated mouse splenocytes [1]	IC50, inhibition of IL-17 production from IL-23 stimulated mouse splenocytes [2]
18C4 (antibody, V domains shown) VH: EVQLQQSGPEVVKPGASVKMSCKASGYTFTSSVIHWVKQKAGQGLEWIGYINPYNDGTKYNEKFKGKATLTSDRSSSTAYMELSSLTSEDSAVYYCTRRLDEAYWGQGTLVTVSA VL: DIVMTQSPATLSVTPGDRVSLSCRASQSISEYLHWYQQKSHESPRLLIKYASQSISGIPSRFSGSGSGSDFTLSINSVEPEDVGVYYCQNGHSFPFTFGSGTKLEIK	0.471 nM	–
24A5 (antibody, V domains shown) VH: EVQLQQSGPELVKPGASVKMSCKASGYTFTTSIMHWVKQKPGQGLEWIGYINPYDDVTKYNEKFKGKATLTSDKSSSTAYMELSSLTSEDSAVYYCVRRWDEAYWGQGTLVTVSA VL: DIVMTQSPATLSVTPGNRVSLSCRASQSISDYLHWYQQKSHESPRLLIKYASQSISGIPSRFSGSGSGSNFTLSINSVEPEDVGVYYCQNGHSFPFTFGSGTKLEIK	0.022 nM and 0.037 nM	0.085 nM and 0.031 nM
18E5 (antibody, V domains shown) VH: EVQLQQSGPELVKPGAAVKMSCKASGYTFTRYLIHWVKQKPGQGLEWIGYINPYNDGTKYNEKFKGKATLTSDKSSSTAYMELSSLTSEDSAVYYCTSNWDLDYWGQGTTLTVSS VL: DIVMTQSPATLSVTPGDRVSLSCRASQSISDYLYWYQQKSHESPRLLIKFASQSISGIPSRFTGSGSGSDFTLSIDSVEPDDVGVFFCQNGHSFPFTFGGGTKLEIK	–	0.009 nM and 0.013 nM
31H9 (antibody, V domains shown) VH: EVQLQQSGPELVKPGASVKMSCKASGYTFTRYLMHWVKQKPGQGLEWIGYINPYNDGTNYNEKFKGKATLTSDKSSSTAYMELSSLTSEDSAVYYCSLNWDYAYWGQGTLVTVSA VL: DIVMTQSPATLSVTPGDRVSLSCRASQSISDYLHWYQQKSHESPRLLIKYASQSISGIPSRFSGSGSGSDFTLSINSVEPEDVGVYYCQNGHSFPYTFGGGTKLEIK	0.96 nM	2 nM
20E8 (antibody, V domains shown) VH: EVQLQQSGPELVKPGASVKMSCKASGYTFTSSVMHWVKQKAGQGLEWIGYINPYNDGTQYNEKFKGKATLTSDKFSSTAYMELSSLTSEDSAVYYCTRRLDEAYWGQGTLVTVSA VL: DIVMTQSPATLSVTPGDRVSLSCRASQSISEYLHWYQQKSHESPRLLIKYASQSISGIPSRFSGSGSGSDFTLSINSVEPEDVGVYYCQNGHSFPFTFGSGTKLEIK	–	0.438 nM and 0.561 nM
9D12 (antibody, V domains shown) VH: QVQLKESGPVLVAPSQSLSITCTVSGFSLNNFAISWVRQPPGKGLEWLGAIWTGGGTNYNSALKSRLSISKDNSKSQVFLKMNSLQTDDTARYYCVRKDYSYGGAMDYWGQGTSVTVSS VL: DIALTQSPASLAVSLGQRATISCRASETINFYGTSFMHWYQQKPGQSPKLLIYRASNLESGIPARFSGSGSRTDFTLTINPVEADDVATYYCQQTNEDPYTFGGGTKLEIK	0.059 nM	0.281 nM and 0.138 nM
27G8 (antibody, V domains shown) VH: QVQLQQSDAELVKPGASVKISCKVSGYTFTDHTIHWMKQRPEQGLEWIGYIYPRDGYPKFNEKFKGKATLTADKSSSTAYMQLNSLTSEDSAVYFCARRPPYYAMDYWGQGTSVAVSS VL: DIVLTQSPASLAVSLGQRATISCRASKSVSTSGYSYIHWYQQKPGQPPKFLIYLASNLDSGVPARFSGSGSGTDFTLNIHPVEEEDAATYYCQHSRELPYTFGGGTKLEIK	0.235 nM	5 nM
74H3 (antibody, V domains shown) VH: EVQLQQSGPELVKPGASVKMSCKASGYTFTRYLMHWVKQKPGQGLEWIGYINPYNDGTKYNERFKGKATLTSDKSSSTAYMELSSLTSEDSAVYYCARNWDVPYWGQGTLVTVSA VL: DIQMTQSPASLSASVGETVIFTCRASENIDSYLAWYQQKQGKSPQLLVYAATNLADGVPSRFSGSGSGTQYSLKINSLQSEDVARYYCLHYYSTPFTFGSGTELEIK	1.35 nM	–

The next lines start with the values.

IC50, inhibition of IL-17 production from IL-23 stimulated mouse splenocytes [1]	IC50, inhibition of IL-17 production from IL-23 stimulated mouse splenocytes [2]	Binder
0.1 nM	–	Chimeric 22E2 (antibody, V domains shown) VH: EVQLQQSGPELVKPGASVKMSCKASGYTFTSSIIHWVKQRPGQGLEWIGYINPYDDVTKYNEKFKGKATLTSDKSSSTAYMELSSLTSEDSAVYYCARRWDESYWGQGTLVTVSA VL: DIVMTQSPATLSVTPGDRVSLSCRASQSISVYLHWYQQKSPESPRLLIKYASQSISGIPSRFSGSGSGSDFTLSINSVEPEDVGVYYCQNGHSFPFTFGSGTKLEIK
0.061 nM and 0.13 nM	–	22E2 (antibody, V domains shown) VH: EVQLQQSGPELVKPGASVKMSCKASGYTFTSSIIHWVKQRPGQGLEWIGYINPYDDVTKYNEKFKGKATLTSDKSSSTAYMELSSLTSEDSAVYYCARRWDESYWGQGTLVTVSA VL: DIVMTQSPATLSVTPGDRVSLSCRASQSISVYLHWYQQKSPESPRLLIKYASQSISGIPSRFSGSGSGSDFTLSINSVEPEDVGVYYCQNGHSFPFTFGSGTKLEIK
0.234 nM	–	18D3 (antibody, V domains shown) VH: EVQLQQSGPELVKPGASVKMSCKASGYTFTRYLIHWVKQKPGQGLEWIGYINPYNDGTKYNEKFKGKATLTSDKSSSTAYMELSSLTSEDSAVYYCTSNWDLDYWGQGTTLTVSS VL: DIVMTQSPATLSVTPGDRVSLSCRASQSISDYLYWYQQKSHESPRLLIKFASQSISGIPSRFTGSGSGSDFTLSIDSVEPDDVGVFFCQNGHSFPFTFGGGTKLEIK
–	2.34 nM and 1.91 nM and 1.6 nM	2D1 (antibody, V domains shown) VH: QVQLKESGPGLVAPSQSLSITCTVSGFSLTTYAISWVRQSPGKGLEWLGVIWTGGGTKYNSALKSRLSISKDNSKSQVFLKMNSLQTDDTARYYCARKDYNYGGAMDYWGQGTSVTVSS VL: DIVLTQSPGSLAVSLGQRATISCRTSESVYSYGQNFIHWYQQKPGQPPKLLIYRASNLESGIPARFSGSGSRTDFTLTMNPVEADDVATYYCQQTNEDPYTFGGGTKLEIR
0.027 nM	–	26F7 (antibody, V domains shown) VH: EVQLQQSGPELVKPGASVKISCKASGYTFTDYYMNWVRQSHGESLEWIGDFNHNNDVITYNPKFKGKVTLTVEKSSTTAYMELRSLSSEDSAVYYCARGLRGYYAMDYWGQGTSVTVSS VL: DIVLTQSPASLAVSLGQRATISCRASKSVRFSDYFYMHWYQQKPGQPPKLLIYLASNLESGVPARFSGSGSGTDFTLNIHPVEEEDAATYYCQNSRELPYTFGGGTKLEIK
0.126 nM	0.232 nM	15C11 (antibody, V domains shown) VH: EVQLQQSGPVLVKPGASVKMSCKASGYTFTDYYMNWVKQSHGKSLEWIGVIIPYNGGTSYNQKFKGKATLTVDKSSSTAYMELNSLTSEDSAVYYCARDGHRWYFDVWGTGTTVTVSS VL: DVVMTQTPLSLPVSLGDQASISCRSSQSLVHSNGNTYLHWYLQKPGQSPKLLIYKVSNRFSGVPDRFSGSGSGTDFTLKINRVEAEDLGVYFCSQSTHVPYTFGGGTQLEIK
–	8 nM	43F5 (antibody, V domains shown) VH: EVQLQQSGPELVKPGASVKISCRASGYSFTGYYMNWVKQSPEKSLEWIGEIIPTTGGTSYNQKFKAKATLTVDKSSSTAYMQLKSLTSEDSAVYYCARESGGFYWYFDVWGTGTTVTVSS VL: DVVMTQSPLSLPVSLGDQASISCRSSQSLVHSNGNTYLHWYLLKPGQSPKLLIYKVSNRFSGVPDRFSGSGSGTDFTLKISRVEAEDLGVYFCSQSTHVPYTFGGGTKLEIK
0.336 nM	0.027 nM and 0.025 nM	34G3 (antibody, V domains shown) VH: EFQLQQSGPELVKPGASVKISCKASGYSFTDYNMNWVKQSKGKSLEWIGVIIPNYGFTSYNQNFKGKATLTVDQSSSTAHMQLNSVTSEDSAVYYCVRDGGILLWYLDVWGTGTTVTVSS VL: DVVMTQTPLSLPVSLGDQASISCRSSQSLVHSNGNTYLHWYLQKPGQSPKLLIYKVSNRFSGVPDRFSGSGSGTDFTLKISRVEAEDLGVYFCSQSTHVPYTFGGGTKLEIN
1.41 nM	–	73H10 (antibody, V domains shown) VH: EVQLQQSGPELVKPGASVKMSCKASGYTFTRYVMHWVKQKPGQGLEWIGYINPYNDVTKYNEKFKGKATLTSDRSSSTAYMKLSSLTSEDSAVYYCARNWDVPYWGQGTLITVSA VL: DIQMTQSPVFLSASVGETVTITCRASENIDSYLAWYQQKQGKSPQLLVFAARNLADGVPSRFSGSGSGTQYSLKINRMQSEDVARYYCQHYYSTPFTFGSGTKLEIE
0.013 nM	–	Mouse antibody 6B8 (antibody, V domains shown) VH: QVQLQQSDAELVKPGTSVKTSCKISGNTFTDQTIHWMKQRPEQGLEWIGYIYPRDDSPKYNENFKGKATLTADKSSSTAYMQLNSLTSEDSAVYFCAIPDRSGYAWFIYWGQGTLVTVSS VL: DIVMTQSHKFLSTSVGDRVTITCKASRDVAIAVAWYQQKPGQSPKLLLFWASTRHTGVPDRFTGSGSRTDFTLTISNVQSEDLADYFCHQYSSYPFTFGSGTKLEIK
